Assay [1] has as its target KirBac1.3-GIRK1 chimeric protein (GIRK chimera) in MSP1E3 nanodiscs (mouse | Burkholderia xenovorans) (UniProt P63250). In words: NMR titration; 1H-13C HMQC (methyl-TROSY) of 11 μM Gα[ILVA]βγ with or without 22 μM (2 eq.) GIRK chimera-nanodiscs; 20 °C; 20 mM HEPES-NaOH pH 7.0, 150 mM KCl, 0.5 mM GDP, 0.1 mM TCEP; signal intensity reductions; apparent Kd estimated.
Assay [2] has as its target NLuc-tagged GIRK (GIRK1/GIRK2-Luc) (human) (UniProt P48549). In words: FRET or BRET; agonist-induced BRET in living HEK293T cells between Venus-Gβγ (acceptor) and GRK-Luc or GIRK-Luc (donor); co-expressed GPCR (DOR or D2R), PTX S1 and a PTX-insensitive Gα (C351A); agonist 10 μM, then antagonist; PBS with 0.5 mM MgCl2 and 0.1% glucose; read 3 min after ligand. (BRET reads energy transfer from a luciferase to a nearby fluorophore.)

Assay [3] concerns the target T1, Gβγ dimer (human Gβ1 and His6-tagged human Gγ2 (C68S)) (human, UniProt P62873 1-340; P59768 1-71, C68S).
T1 construct: G protein β1 subunit (Gβ1), human; G protein γ2 subunit (Gγ2), human; also called [non-labeled]βγ
In words: SEC; purified Gα and Gβγ mixed with a slight excess of Gβγ; Gαβγ isolated by gel filtration on Superdex 200. As to conditions: both partners purified. Background: SEC sorts molecules by how far they enter the pores of the column.

Sequence of NLuc-tagged GIRK (GIRK1/GIRK2-Luc) (human) (P48549 whole entry, chain 1 of 2): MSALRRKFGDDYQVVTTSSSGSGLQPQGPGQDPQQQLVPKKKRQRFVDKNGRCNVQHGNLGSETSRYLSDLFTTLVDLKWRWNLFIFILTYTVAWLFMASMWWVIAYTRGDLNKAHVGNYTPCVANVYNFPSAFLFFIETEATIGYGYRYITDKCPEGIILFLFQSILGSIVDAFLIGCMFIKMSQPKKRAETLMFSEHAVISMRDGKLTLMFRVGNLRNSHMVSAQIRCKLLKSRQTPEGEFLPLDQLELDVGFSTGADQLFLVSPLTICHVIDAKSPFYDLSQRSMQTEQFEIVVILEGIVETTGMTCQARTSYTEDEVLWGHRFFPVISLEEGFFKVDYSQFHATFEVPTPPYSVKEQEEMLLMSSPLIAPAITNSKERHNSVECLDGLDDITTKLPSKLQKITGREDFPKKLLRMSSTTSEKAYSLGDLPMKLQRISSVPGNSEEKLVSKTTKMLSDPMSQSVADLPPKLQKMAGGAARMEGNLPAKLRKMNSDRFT
Sequence of NLuc-tagged GIRK (GIRK1/GIRK2-Luc) (human) (P48051 whole entry, chain 2 of 2, further chain): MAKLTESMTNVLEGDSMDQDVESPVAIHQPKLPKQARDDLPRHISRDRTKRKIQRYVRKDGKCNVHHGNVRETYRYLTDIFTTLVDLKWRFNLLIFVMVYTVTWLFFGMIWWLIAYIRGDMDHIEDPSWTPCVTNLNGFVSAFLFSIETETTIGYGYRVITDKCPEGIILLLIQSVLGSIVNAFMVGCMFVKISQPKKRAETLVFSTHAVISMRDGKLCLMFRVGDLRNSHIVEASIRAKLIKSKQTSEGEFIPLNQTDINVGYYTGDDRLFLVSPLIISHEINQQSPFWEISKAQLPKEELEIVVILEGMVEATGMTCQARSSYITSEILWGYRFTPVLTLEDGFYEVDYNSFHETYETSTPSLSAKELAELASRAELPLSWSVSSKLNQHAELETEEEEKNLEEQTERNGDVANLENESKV

“Gαi3βγ heterotrimer (Gαi3[ILVA] complexed with non-labeled Gβ1γ2(C68S)), GDP-bound (from UniProt P08754 1-354; P62873 1-340; P59768 1-71)”: the Kd in assay [1] is greater than 200 µM.

In assay [2], “Venus-tagged Gβγ (Venus 156–239-Gβ1 with Venus 1–155-Gγ2) (from UniProt P62873 1-340; P59768 1-71) (complex)” registered a specificity factor (ΔBRET GIRK/ΔBRET GRK), with D2R and Gαi3 of 0.303; a specificity factor (ΔBRET GIRK/ΔBRET GRK), with D2R and Gαiqi of 0.157; a specificity factor (ΔBRET GIRK/ΔBRET GRK), with D2R and Gαqi5 of 0.091; a specificity factor (ΔBRET GIRK/ΔBRET GRK), with D2R and Gαqiqi5 of 0.236. In assay [2], this molecule displayed a specificity factor (ΔBRET GIRK/ΔBRET GRK), with DOR and Gαi3 of 0.286; a specificity factor (ΔBRET GIRK/ΔBRET GRK), with DOR and Gαiqi of 0.148; a specificity factor (ΔBRET GIRK/ΔBRET GRK), with Gαi3-q(αA) of 0.159; a specificity factor (ΔBRET GIRK/ΔBRET GRK), with Gαi3-q(αB) of 0.248. The same molecule showed a specificity factor (ΔBRET GIRK/ΔBRET GRK), with Gαi3-q(αE) in assay [2] of 0.249.

B1: Gαiqi (chimeric Gα: GTPase domain of Gαi3, helical domain of Gαq), purified (other, human, UniProt P08754 1-62, looked up)
chain: MGCTLSAEDKAAVERSKMIDRNLREDGEKAAKEVKLLLLGAGESGKSTIVKQMKIIHEDGYSDEDKRGFTKLVYQNIFTAMQAMIRAMDTLKIPYKYEHNKAHAQLVREVDVEKVSAFENPYVDAIKSLWNDPGIQECYDRRREYQLSDSTKYYLNDLDRVADPAYLPTQQDVLRTRVKTTGIVETHFTFKDLYFKMFDVGGQRSERKKWIHCFEGVTAIIFCVALSDYDLVLAEDEEMNRMHESMKLFDSICNNKWFTETSIILFLNKKDLFEEKIKRSPLTICYPEYTGSNTYEEAAAYIQCQFEDLNRRKDTKEIYTHFTCATDTKNVQFVFDAVTDVIIKNNLKECGLY
notes: Gαi3, human, GTPase domain residues 1-62; Gαq, human, helical domain residues 69-180; Gαi3, human, GTPase domain residues 176-354; also called Gαiqi[ILVA]; source: E. coli BL21-CodonPlus (DE3)-RP, purified in the same way as the wild-type Gαi3; not shown: His10, N-terminal, cleaved
As to B1, the binding result in assay [3] is “binds”.

These data come from article PMC6494913 (Nature Communications, 2019).
